For the experiment, the target named is Cer-PLN-AFA and YFP-PLN-AFA: canine phospholamban AFA mutant fused at its N-terminus with mCerulean or enhanced YFP (canine) (UniProt P61012). Put plainly: FRET or BRET; in-cell binding assay, acceptor sensitization FRET in living AAV-293 cells co-transfected with Cer-PLN-AFA and YFP-PLN-AFA (1:5); FRET against relative protein concentration cell by cell, hyperbolic fit; apparent KD1 of the PLN-PLN oligomer; with or without 1 uM 50-mer ssDNA. Background: BRET reads energy transfer from a luciferase to a nearby fluorophore.

This is an account of results in article PMC4543939.

Cer-PLN-AFA and YFP-PLN-AFA: canine phospholamban AFA mutant fused at its N-terminus with mCerulean or enhanced YFP, sequence (P61012 whole entry, change not shown, the tested form may be a part): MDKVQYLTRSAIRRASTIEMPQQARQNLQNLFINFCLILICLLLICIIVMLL

Turning to “Cer-PLN-AFA and YFP-PLN-AFA: canine phospholamban AFA mutant fused at its N-terminus with mCerulean or enhanced YFP (from UniProt P61012 1-52) (natural protein)”, the increase in PLN oligomerization with 50-mer ssDNA against no ssDNA stood at 20%.
